Blank lines part the entries; values can stand above or below the molecule they belong to.
Legend:
[1] = target: PE-conjugated HLA-A*02:01/MART1 26-35 heteroclitic multimer (Proimmune) (human); assay: structural avidity: flow cytometry, graded A2/MART1 multimer on Jurkat76/CD8αβ transfectants
[2] = target: PE-conjugated HLA-A*02:01/MART1 26-35 heteroclitic multimer (Proimmune) (human); assay: structural avidity: flow cytometry, graded A2/MART1 multimer on Jurkat76 transfectants without CD8
[3] = target: HLA-A*02:01 presenting MART1 27-35 peptide (…) on peptide-pulsed T2 cells (human); assay: cell-based or functional assay
[4] = target: MART1 peptide on HLA-A*02:01 (human); assay: IL-2 ELISPOT; Jurkat76/CD8αβ transfectants; T2 cells pulsed with graded concentrations of MART1 27-35 peptide; full-length, on cells
[5] = target: MART1 peptide on HLA-A*02:01 (human); assay: staining with graded concentrations of A2/MART1 multimer; Jurkat76/CD8αβ transfectants; full-length, on cells
[6] = target: MART1 peptide on HLA-A*02:01 (human); assay: staining with graded concentrations of A2/MART1 multimer; Jurkat76 transfectants without CD8; full-length, on cells
[7] = target: MART1 peptide on HLA-A*02:01 (human); assay: IL-2 ELISPOT; Jurkat76 transfectants without CD8; T2 cells pulsed with graded concentrations of MART1 27-35 peptide; full-length, on cells
[8] = target: T1, WT1 peptide on HLA-A*24:02 (human, heteroclitic peptide as printed; the natural WT1 235-243 residues are not given); assay: cytokine release
T1 peptide: CYTWNQMNL

[9] = target: MART1 peptide on HLA-A*02:01 (human); assay: staining with graded concentrations of A2/MART1 multimer; Jurkat76/CD8αβ transfectants; full-length, on cells; conditions: heteroclitic peptide, residues not given
[10] = target: MART1 peptide on HLA-A*02:01 (human); assay: staining with graded concentrations of A2/MART1 multimer; Jurkat76 transfectants without CD8; full-length, on cells; conditions: heteroclitic peptide, residues not given
[11] = chains Valpha:beta TRBV27 TRBJ1-2 CDR3
[12] = chains Valpha:beta TRBV27 TRBJ2-7 CDR3

- EC50 [1]: 0.02 µg/mL
- EC50 [2]: 0.03 µg/mL
- Functional avidity w/CD8 EC50 (IL-2 ELISPOT, peptide-pulsed T2 cells) [3]: 330 nM
- Functional avidity w/o CD8 EC50 (IL-2 ELISPOT, peptide-pulsed T2 cells) [3]: 1400 nM
- Functional avidity with CD8 EC50 (IL-2 ELISPOT, peptide-pulsed T2 cells) [3]: 0.102 µg/mL
- Functional avidity without CD8 EC50 (IL-2 ELISPOT, peptide-pulsed T2 cells) [3]: 0.363 µg/mL
Molecule: A2/MART1-specific TCR, clone DMF5

- EC50 of peptide [4]: 330 nM
- EC50 of multimer (structural avidity) [5]: 0.02 µg/mL
- EC50 of multimer (structural avidity) [6]: 0.03 µg/mL
- EC50 of peptide [7]: 1400 nM
Molecule: DMF5 TCR

- binding result [8]: recognises
B1: Clone T53 (T53 TCRα with TAK1β) (TCR, V domains shown)
Valpha: EDKVVQSPLSLVVHEGDTVTLNCSYEVTNFRSLLWYKQEKKAPTFLFMLTSSGIEKKSGRLSSILDKKELFSILNITATQTGDSAVYLCAVITGGTSYGKLTFGQGTILTVHP
Vbeta: LAGVTQTPRYLIKTRGQQVTLSCSPISGHRSVSWYQQTPGQGLQFLFEYFSETQRNKGNFPGRFSGRQFSNSRSEMNVSTLELGDSALYLCASSLGWRETYNEQFFGPGTRLTVL

- binding result [8]: recognises
B2: Clone T243 (T243 TCRα with TAK1β) (TCR, V domains shown)
Valpha: EDKVVQSPLSLVVHEGDTVTLNCSYEVTNFRSLLWYKQEKKAPTFLFMLTSSGIEKKSGRLSSILDKKELFSILNITATQTGDSAVYLCAVLTQTGANNLFFGTGTRLTVIP
Vbeta: B1 Vbeta

- binding result [8]: recognises
B3: Clone A262 (A262 TCRα with TAK1β) (TCR, V domains shown)
Valpha: EDKVVQSPLSLVVHEGDTVTLNCSYEVTNFRSLLWYKQEKKAPTFLFMLTSSGIEKKSGRLSSILDKKELFSILNITATQTGDSATYLCAVQNAGGTSYGKLTFGQGTILTVHP
Vbeta: B1 Vbeta

- binding result [8]: recognises
B4: Clone T262 (T262 TCRα with TAK1β) (TCR, V domains shown)
Valpha: EDQVTQSPEALRLQEGESSSLNCSYTVSGLRGLFWYRQDPGKGPEFLFTLYSAGEEKEKERLKATLTKKESFLHITAPKPEDSATYLCAVQALRNNAGNNRKLIWGLGTSLAVNP
Vbeta: B1 Vbeta

- EC50 of multimer (structural avidity) [9, 11]: 0.01 µg/mL
- EC50 of multimer (structural avidity) [10, 11]: 0.04 µg/mL
B5: Clone 1086 (SIG35α with clone 1086 TCRβ) (protein)
chain 1: QKEVEQNSGPLSVPEGAIASLNCTYSDRGSQSFFWYRQYSGKSPELIMFIYSNGDKEDGRFTAQLNKASQYVSLLIRDSQPSDSATYLCAVSIGFGNVLHCGSGTQVIVLP
chain 2: CASSLHGPGGYTF

- EC50 of multimer (structural avidity) [9, 12]: 0.01 µg/mL
- EC50 of multimer (structural avidity) [10, 12]: 0.05 µg/mL
B6: Clone 788 (SIG35α with clone 788 TCRβ) (protein)
chain 1: B5 chain 1
chain 2: CASGPSYEQYF

- EC50 of multimer (structural avidity) [9, 12]: 0.3 µg/mL
B7: Clone 523 (SIG35α with clone 523 TCRβ) (protein)
chain 1: B5 chain 1
chain 2: CASGSYEQYF
